Article PMC7935953, “Insights on autophagosome–lysosome tethering from structural and biochemical characterization of human autophagy factor EPG5” (Communications Biology, 2021)

Tests used:
Assay in all cases: pull-down; GST pull-down: purified GST-LC3A/B/C or GST-GABARAP/L1/L2 bait (200–240 µg) on glutathione resin, purified His-FLAG-hEPG5 or mutant (25–30 µg) as prey; 50 mM Tris pH 8.0, 150 mM NaCl, 5% glycerol, 0.01% Tween20, 0.5 mM DTT, 4 °C; anti-FLAG fluorescence western blot
GST-GABARAP (human) = GST-GABARAP (human) (UniProt O95166)
GST-GABARAPL2 (human) = GST-GABARAPL2 (human) (UniProt P60520)
GST-GABARAPL1 (human) = GST-GABARAPL1 (human) (UniProt Q9H0R8)

Measured: fold more hEPG5 precipitated than by the LC3 subfamily

GST-GABARAPL1 (human), sequence (Q9H0R8 whole entry): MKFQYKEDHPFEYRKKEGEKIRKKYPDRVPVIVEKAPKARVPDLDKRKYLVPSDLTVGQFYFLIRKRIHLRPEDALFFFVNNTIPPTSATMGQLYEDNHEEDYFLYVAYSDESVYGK
GST-GABARAP (human), sequence (O95166 whole entry): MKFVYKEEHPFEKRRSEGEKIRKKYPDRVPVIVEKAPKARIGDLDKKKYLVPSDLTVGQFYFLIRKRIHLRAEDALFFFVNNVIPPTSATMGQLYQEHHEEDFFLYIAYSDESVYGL
GST-GABARAPL2 (human), sequence (P60520 whole entry): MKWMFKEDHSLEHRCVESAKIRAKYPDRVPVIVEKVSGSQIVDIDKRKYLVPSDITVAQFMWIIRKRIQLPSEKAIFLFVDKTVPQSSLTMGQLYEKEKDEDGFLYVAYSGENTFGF

His-FLAG-hEPG5 (human EPG5, full length, wild type), Q9HCE0 1-2579
2.5 times: all assays above
